# Paper PMC9098913, “In vitro reconstitution of Escherichia coli divisome activation” (Nature Communications, 2022)
# B1: FtsA WT (1-405)-6xHis (domain or fragment, E. coli, UniProt P0ABH0 1-405, looked up)
# chain: MIKATDRKLVVGLEIGTAKVAALVGEVLPDGMVNIIGVGSCPSRGMDKGGVNDLESVVKCVQRAIDQAELMADCQISSVYLALSGKHISCQNEIGMVPISEEEVTQEDVENVVHTAKSVRVRDEHRVLHVIPQEYAIDYQEGIKNPVGLSGVRMQAKVHLITCHNDMAKNIVKAVERCGLKVDQLIFAGLASSYSVLTEDERELGVCVVDIGGGTMDIAVYTGGALRHTKVIPYAGNVVTSDIAYAFGTPPSDAEAIKVRHGCALGSIVGKDESVEVPSVGGRPPRSLQRQTLAEVIEPRYTELLNLVNEEILQLQEKLRQQGVKHHLAAGIVLTGGAAQIEGLAACAQRVFHTQVRIGAPLNITGLTDYAQEPYYSTAVGLLHYGKESHLNGEAEVEKRVTASV
# modifications: Cy3 or Cy5 at the N-terminus in the labelled form (sortagging as for native FtsA)
# notes: FtsA, E. coli, residues 1-405; plasmid pNB4; Attached to membranes through Tris-NTA lipids by its His tag; also called FtsA-His6; FtsA WT-His6; source: E. coli BL21, purified (as native FtsA); not shown: TwinStrep-SUMO, N-terminal, cleaved; 5xGlycine tag, N-terminal, kept; His6, C-terminal, kept
# B2: His6-SUMO (protein, UniProt Q12306 2-98, looked up)
# Ubiquitin-like protein SMT3: SDSEVNQEAKPEVKPEVKPETHINLKVSDGSSEIFFKIKKTTPLRRLMEAFAKRQGKEMDSLRFLYDGIRIQADQTPEDLDMEDNDIIEAHREQIGG
# modifications: His6 tag
# Assays:
# FtsA self-interaction [1] = test: FRET (acceptor photobleaching) self-interaction of FtsA on supported lipid bilayers; type: binding, E. coli
# Source text: To directly measure FtsA self-interaction in our fluorescence microscopy experiments, we established a FRET (Förster resonance energy transfer)-based assay using FtsA labelled with either Cy5 (acceptor) or Cy3 (donor). […] We then decided to use this approach to measure the degree of FtsA self-interaction on supported lipid membranes by quantifying the increase in donor fluorescence after photobleaching the acceptor fluorophore[30]–[32] (Fig. 3c–e and Fig. S3d). […] As a negative control, we also attached the Hexahistidine-SUMO-tag (His-SUMO) labelled with Cy5 and Cy3 to membranes with an increasing density of Tris-NTA lipids.
# Equimolar concentrations of Cy3- and Cy5-labelled FtsA, supplemented with 20% unlabelled FtsA were used to study FRET and FRAP. Five pre-bleach frames were acquired, followed by acceptor photobleaching of a rectangular ROI with 40% 641 nm laser power and a dwell size of 1 µs/pixel, 75% overlapping lines. The recovery of the signal or the increase in donor intensity were measured with either two frames or one frame per second.
# (§1) Bleaching the acceptor dye leads to an increase in the donor intensity, which can be used to quantify the Foerster Resonance energy transfer (FRET)[48]. FRET efficiency was quantified with E%=Ipost/Ipost+Ipre⋅100 , where Ipost is the intensity of the […] and Ipre is the […]. […] To extract the contribution of both processes, we adjusted a routine recently published by Gerganova et al.[33]. In short, the code provides the contribution of both modes of recovery by analysing the shape of the fluorescence recovery profile. […] Contribution of diffusion leads to a change of the slope of the outer borders of the bleached region (S4h right). Thus, by measuring the change of the slope of the border recovery, diffusion and simple on/off binding can be distinguished. We developed “FRAPdiff”, a graphical user interface, which uses the original fit routine by David Rutkowski. It can be used directly on.tiff movies with annotated bleach regions as ImageJ ROIs. In addition, we added optional bleach correction, user selectable projection axis (x or y), and optional mirroring of the recovery profiles, if bleaching was not symmetric. The original fit routine for estimating the recovery and diffusion dynamics can be found at https://github.com/davidmrutkowski/1DReflectingDiffusion. FRAPdiff is available at 10.5281/zenodo.6400639[49] under the GPLv3 open-source license.
# [2] = molecular target: the molecule itself; test: FRET or BRET; acceptor photobleaching; equimolar Cy3- and Cy5-labelled His-tagged protein (total 0.5-1 µM, washed) attached to bilayers with varied Tris-NTA lipid density
# FtsA self-interaction [3] = test: FRET self-interaction of His-tagged FtsAs (and His-SUMO control) on Tris-NTA membranes; type: binding, E. coli; conditions: without FtsZ
# Protocol: (§2) To study colocalization of His-tagged variants of FtsA, 0.5–1 µM of Cy5 labelled His-tagged FtsAs were added to the chamber, incubated for 20 min and washed 6x with reaction buffer. […] To control the density of membrane-bound FtsA, SUVs without and with Tris-NTA lipids were mixed to obtain the respective Tris-NTA concentrations. To perform FRET/FRAP experiments, equimolar concentrations of Cy3 and Cy5 labelled His-tagged FtsAs (total 0.5–1 µM) or His-SUMO-Cys were added to a chamber and treated as above. […] FRAP experiments were performed as described before.
# as §1
# [4] = Diffusion coefficient of His-tagged FtsAs and His-SUMO on Tris-NTA membranes (FRAP); conditions: without FtsZ
# Protocol: as §2, §1
molecule,measurement,setting,value
"Nc1ncnc2c1ncn2[C@@H]1O[C@H](CO[P@](=O)(O)O[P@](=O)(O)O[P@@](=O)(O)S)[C@@H](O)[C@H]1O [ATPγS, reference compound]","effect of replacing ATP with ATPγS on membrane-binding, self-interaction or membrane-binding dynamics",FtsA self-interaction [1],no significant effect
B1,binding result,[2],binds
B2,FRET efficiency,"FtsA self-interaction [3]; 0.1% Tris NTA, Exp1",1.02%
same,FRET efficiency,"FtsA self-interaction [3]; 0.1% Tris NTA, Exp2",1.41%
same,FRET efficiency,"FtsA self-interaction [3]; 0.1% Tris NTA, mean, n = 2",1.21%
same,FRET efficiency,"FtsA self-interaction [3]; 0.4% Tris NTA, Exp1",1.31%
same,FRET efficiency,"FtsA self-interaction [3]; 0.4% Tris NTA, Exp2",1.55%
same,FRET efficiency,"FtsA self-interaction [3]; 0.4% Tris NTA, Mean, n = 2",1.43%
same,FRET efficiency,"FtsA self-interaction [3]; 0.6% Tris NTA, Exp1",0.86%
same,FRET efficiency,"FtsA self-interaction [3]; 0.6% Tris NTA, Exp2",0.95%
same,FRET efficiency,"FtsA self-interaction [3]; 0.6% Tris NTA, Mean, n = 3 (His6-SUMO n = 2)",0.91%
same,FRET efficiency,"FtsA self-interaction [3]; 0.8% Tris NTA, Exp1",0.27%
same,FRET efficiency,"FtsA self-interaction [3]; 0.8% Tris NTA, Exp2",0.30%
same,FRET efficiency,"FtsA self-interaction [3]; 0.8% Tris NTA, Mean, n = 3 (His6-SUMO n = 2)",0.29%
same,FRET efficiency,"FtsA self-interaction [3]; 1% Tris NTA, Exp1",0.57%
same,FRET efficiency,"FtsA self-interaction [3]; 1% Tris NTA, Exp2",0.59%
same,FRET efficiency,"FtsA self-interaction [3]; 1% Tris NTA, Exp3",0.56%
same,FRET efficiency,"FtsA self-interaction [3]; 1% Tris NTA, Mean, n = 3 (R286W-His6 n = 4)",0.57%
same,FRET efficiency,"FtsA self-interaction [3]; 2% Tris NTA, Exp1",0.56%
same,FRET efficiency,"FtsA self-interaction [3]; 2% Tris NTA, Exp2",0.41%
same,FRET efficiency,"FtsA self-interaction [3]; 2% Tris NTA, Mean, n = 2",0.49%
same,FRET efficiency,"FtsA self-interaction [3]; Tris 0.40 %, mean",1.43%
same,FRET efficiency,"FtsA self-interaction [3]; Tris 0.60 %, mean",0.91%
same,FRET efficiency,"FtsA self-interaction [3]; Tris 0.80 %, mean",0.28%
same,FRET efficiency,"FtsA self-interaction [3]; Tris 1.00 %, mean",0.57%
same,FRET efficiency,"FtsA self-interaction [3]; Tris 2.00 %, mean",0.49%
same,FRET efficiency,"FtsA self-interaction [3]; […] Tris NTA, Exp1",1.47%
same,FRET efficiency,"FtsA self-interaction [3]; […] Tris NTA, Exp2",1.00%
same,FRET efficiency,"FtsA self-interaction [3]; […] Tris NTA, mean, n = 2",1.23%
same,Diffusion Coefficient,"[4]; 0.1% Tris NTA, replicate Exp1",0.47 µm2/s
same,Diffusion Coefficient,"[4]; 0.1% Tris NTA, replicate Exp2",0.69 µm2/s
same,Diffusion Coefficient,"[4]; 0.4% Tris NTA, replicate Exp1",0.55 µm2/s
same,Diffusion Coefficient,"[4]; 0.4% Tris NTA, replicate Exp2",0.53 µm2/s
same,Diffusion Coefficient,"[4]; 0.4% Tris NTA, replicate Exp3",0.48 µm2/s
same,Diffusion Coefficient,"[4]; 0.6% Tris NTA, replicate Exp1",0.58 µm2/s
same,Diffusion Coefficient,"[4]; 0.6% Tris NTA, replicate Exp2",0.54 µm2/s
same,Diffusion Coefficient,"[4]; 0.6% Tris NTA, replicate Exp3",0.58 µm2/s
same,Diffusion Coefficient,"[4]; 0.6% Tris NTA, replicate Exp4",0.63 µm2/s
same,Diffusion Coefficient,"[4]; 0.8% Tris NTA, mean",0.52 µm2/s
same,Diffusion Coefficient,"[4]; 0.8% Tris NTA, replicate Exp1",0.56 µm2/s
same,Diffusion Coefficient,"[4]; 0.8% Tris NTA, replicate Exp2",0.53 µm2/s
same,Diffusion Coefficient,"[4]; 0.8% Tris NTA, replicate Exp3",0.48 µm2/s
same,Diffusion Coefficient,"[4]; 0.8% Tris NTA, replicate Exp4",0.52 µm2/s
same,Diffusion Coefficient,"[4]; 1% Tris NTA, mean",0.57 µm2/s
same,Diffusion Coefficient,"[4]; 1% Tris NTA, replicate Exp1",0.45 µm2/s
same,Diffusion Coefficient,"[4]; 1% Tris NTA, replicate Exp2",0.57 µm2/s
same,Diffusion Coefficient,"[4]; 1% Tris NTA, replicate Exp3",0.66 µm2/s
same,Diffusion Coefficient,"[4]; 1% Tris NTA, replicate Exp4",0.60 µm2/s
same,Diffusion Coefficient,"[4]; 1% Tris NTA, replicate Exp5",0.57 µm2/s
same,Diffusion Coefficient,"[4]; 1% Tris NTA, replicate Exp6",0.68 µm2/s
same,Diffusion Coefficient,"[4]; 1% Tris NTA, replicate Exp7",0.62 µm2/s
same,Diffusion Coefficient,"[4]; 1% Tris NTA, replicate Exp8",0.43 µm2/s
same,Diffusion Coefficient,[4]; Tris 0.10 %,0.58 µm2/s
same,Diffusion Coefficient,[4]; Tris 0.40 %,0.52 µm2/s
same,Diffusion Coefficient,[4]; Tris 0.60 %,0.58 µm2/s
same,Diffusion Coefficient,[4]; Tris 0.80 %,0.52 µm2/s
same,Diffusion Coefficient,[4]; Tris 1.00 %,0.57 µm2/s
same,Diffusion Coefficient,[4]; Tris 2.00 %,0.58 µm2/s
same,Diffusion Coefficient,[4]; Tris […],0.56 µm2/s
same,Diffusion Coefficient,"[4]; […] Tris NTA, mean (n: WT 2, R286W 3, SUMO 3)",0.56 µm2/s
same,Diffusion Coefficient,"[4]; […] Tris NTA, replicate Exp1",0.47 µm2/s
same,Diffusion Coefficient,"[4]; […] Tris NTA, replicate Exp2",0.67 µm2/s
same,Diffusion Coefficient,"[4]; […] Tris NTA, replicate Exp3",0.53 µm2/s
